In patent publication US20220332804A1 (CSL INNOVATION, published 2022):

Key:
Test in all cases: SPR, antibody captured, C2 as analyte;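 also: biacore SPR at 37 °C, anti-C2 mAbs captured via goat anti-human IgG on CM5 chips, double-referenced sensorgrams fit to a 1:1 kinetic or steady-state model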
human C2 S713A = target: T1, human C2 S713A (human, UniProt P06681 21-752)
T1 sequence: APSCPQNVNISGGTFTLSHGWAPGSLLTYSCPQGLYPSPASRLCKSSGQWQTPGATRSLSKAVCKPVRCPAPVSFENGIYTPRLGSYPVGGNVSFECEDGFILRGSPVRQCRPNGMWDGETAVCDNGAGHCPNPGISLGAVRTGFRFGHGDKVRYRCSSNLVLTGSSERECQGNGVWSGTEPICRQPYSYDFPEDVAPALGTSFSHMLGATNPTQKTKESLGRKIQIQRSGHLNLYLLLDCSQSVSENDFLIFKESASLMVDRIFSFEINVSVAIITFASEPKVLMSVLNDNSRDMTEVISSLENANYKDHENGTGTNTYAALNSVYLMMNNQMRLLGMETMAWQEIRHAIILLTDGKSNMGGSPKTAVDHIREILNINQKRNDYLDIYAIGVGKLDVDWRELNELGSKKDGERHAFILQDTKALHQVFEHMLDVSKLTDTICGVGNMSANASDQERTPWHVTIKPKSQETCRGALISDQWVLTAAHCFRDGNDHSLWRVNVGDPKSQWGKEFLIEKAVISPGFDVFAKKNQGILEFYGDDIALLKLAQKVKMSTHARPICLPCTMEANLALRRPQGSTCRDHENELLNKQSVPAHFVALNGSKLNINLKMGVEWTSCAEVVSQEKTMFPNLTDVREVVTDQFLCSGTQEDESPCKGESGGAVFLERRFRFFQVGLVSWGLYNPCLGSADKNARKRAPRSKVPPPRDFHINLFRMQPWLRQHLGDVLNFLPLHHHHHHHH

human C2 E433A = target: T2, human C2 E433A (human, UniProt P06681 21-752)
T2 sequence: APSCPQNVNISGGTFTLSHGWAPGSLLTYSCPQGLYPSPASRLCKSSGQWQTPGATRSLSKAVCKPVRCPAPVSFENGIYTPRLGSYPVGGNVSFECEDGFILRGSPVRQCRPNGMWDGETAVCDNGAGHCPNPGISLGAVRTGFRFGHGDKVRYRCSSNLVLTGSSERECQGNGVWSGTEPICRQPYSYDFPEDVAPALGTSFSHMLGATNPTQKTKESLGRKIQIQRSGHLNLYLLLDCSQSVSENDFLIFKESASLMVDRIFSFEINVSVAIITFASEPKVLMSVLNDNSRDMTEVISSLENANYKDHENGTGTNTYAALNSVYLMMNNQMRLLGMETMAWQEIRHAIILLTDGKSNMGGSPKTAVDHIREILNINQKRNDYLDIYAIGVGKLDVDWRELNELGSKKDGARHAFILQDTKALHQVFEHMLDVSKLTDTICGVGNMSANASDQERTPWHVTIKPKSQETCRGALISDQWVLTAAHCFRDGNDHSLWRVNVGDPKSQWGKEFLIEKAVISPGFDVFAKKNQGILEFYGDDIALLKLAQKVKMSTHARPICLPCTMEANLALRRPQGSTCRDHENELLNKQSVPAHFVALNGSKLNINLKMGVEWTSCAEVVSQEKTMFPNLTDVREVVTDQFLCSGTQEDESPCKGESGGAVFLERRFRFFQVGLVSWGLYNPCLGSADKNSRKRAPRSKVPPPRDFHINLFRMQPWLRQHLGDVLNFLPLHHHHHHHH

human C2 R434A = target: T3, human C2 R434A (human, UniProt P06681 21-752)
T3 sequence: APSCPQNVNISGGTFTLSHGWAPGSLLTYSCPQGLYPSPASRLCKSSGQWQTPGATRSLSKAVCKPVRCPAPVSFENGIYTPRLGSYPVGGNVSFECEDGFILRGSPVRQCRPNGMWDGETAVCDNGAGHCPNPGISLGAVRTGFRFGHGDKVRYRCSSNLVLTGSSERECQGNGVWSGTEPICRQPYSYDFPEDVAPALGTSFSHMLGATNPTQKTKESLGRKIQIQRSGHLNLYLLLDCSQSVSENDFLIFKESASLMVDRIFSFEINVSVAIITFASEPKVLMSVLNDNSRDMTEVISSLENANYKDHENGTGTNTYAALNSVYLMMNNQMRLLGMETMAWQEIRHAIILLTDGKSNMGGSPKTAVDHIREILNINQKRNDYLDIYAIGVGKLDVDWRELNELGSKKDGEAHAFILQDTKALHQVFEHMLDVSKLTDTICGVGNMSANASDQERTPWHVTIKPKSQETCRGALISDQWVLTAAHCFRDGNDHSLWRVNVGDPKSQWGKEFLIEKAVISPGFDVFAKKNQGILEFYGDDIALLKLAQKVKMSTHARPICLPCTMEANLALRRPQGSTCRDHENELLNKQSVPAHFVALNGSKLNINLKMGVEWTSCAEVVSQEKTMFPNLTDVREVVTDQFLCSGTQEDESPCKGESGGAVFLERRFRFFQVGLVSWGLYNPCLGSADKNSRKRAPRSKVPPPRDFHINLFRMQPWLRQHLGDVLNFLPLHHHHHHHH

human C2 M452A = target: T4, human C2 M452A (human, UniProt P06681 21-752)
T4 sequence: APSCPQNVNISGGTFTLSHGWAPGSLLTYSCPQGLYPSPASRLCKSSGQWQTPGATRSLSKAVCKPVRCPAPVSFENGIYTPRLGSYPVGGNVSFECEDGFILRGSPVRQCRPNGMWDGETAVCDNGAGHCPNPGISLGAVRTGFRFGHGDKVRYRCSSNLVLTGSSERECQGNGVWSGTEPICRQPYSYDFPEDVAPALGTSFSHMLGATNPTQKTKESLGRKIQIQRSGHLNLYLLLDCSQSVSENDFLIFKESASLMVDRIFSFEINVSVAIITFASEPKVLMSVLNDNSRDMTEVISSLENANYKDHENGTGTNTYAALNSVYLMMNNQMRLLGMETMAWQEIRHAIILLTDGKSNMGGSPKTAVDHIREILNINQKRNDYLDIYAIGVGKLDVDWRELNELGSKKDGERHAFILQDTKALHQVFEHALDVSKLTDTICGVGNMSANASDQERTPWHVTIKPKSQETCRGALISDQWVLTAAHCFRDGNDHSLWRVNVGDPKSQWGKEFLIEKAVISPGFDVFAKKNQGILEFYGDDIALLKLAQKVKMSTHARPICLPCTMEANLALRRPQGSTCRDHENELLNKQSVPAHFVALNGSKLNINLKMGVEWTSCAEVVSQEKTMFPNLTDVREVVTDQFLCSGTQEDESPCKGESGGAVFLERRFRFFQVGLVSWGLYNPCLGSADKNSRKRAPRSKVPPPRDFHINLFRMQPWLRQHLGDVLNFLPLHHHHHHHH

B1: RF16-226 (antibody, human IgG4 S228P, lambda)
heavy: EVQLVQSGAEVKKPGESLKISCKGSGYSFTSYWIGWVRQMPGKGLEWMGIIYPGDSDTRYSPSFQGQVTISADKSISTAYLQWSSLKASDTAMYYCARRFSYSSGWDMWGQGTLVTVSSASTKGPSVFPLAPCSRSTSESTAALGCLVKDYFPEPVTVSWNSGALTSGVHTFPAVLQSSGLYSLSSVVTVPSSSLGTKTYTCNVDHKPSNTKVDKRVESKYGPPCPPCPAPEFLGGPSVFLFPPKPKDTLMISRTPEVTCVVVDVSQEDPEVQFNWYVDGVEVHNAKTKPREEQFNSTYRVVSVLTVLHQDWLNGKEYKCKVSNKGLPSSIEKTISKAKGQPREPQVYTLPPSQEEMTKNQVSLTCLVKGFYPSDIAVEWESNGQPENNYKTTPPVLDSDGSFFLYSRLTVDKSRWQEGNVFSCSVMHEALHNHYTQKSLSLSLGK
light: SYELTQPPSVSVSPGQTARITCSGDALTSKYVAWYQQKSGLAPLLVIYEDTRRPSGIPAKFSGSSSGSVATLTISGAHGDDEADYYCYSTDASGHQRVFGGGTKLTVLSQPKAAPSVTLFPPSSEELQANKATLVCLISDFYPGAVTVAWKADGSPVKAGVETTKPSKQSNNKYAASSYLSLTPEQWKSHRSYSCQVTHEGSTVEKTVAPTECS
notes: pH-dependent anti-C2 antibody from a phage display library; also called WT
Human C2 S713A
  Kd: 0.019 µM
Human C2 E433A
  Kd: 0.0026 µM
Human C2 R434A
  Kd: 0.142 µM
Human C2 M452A
  Kd: 0.0041 µM
